The subject of data set [1] is HeLa Kyoto. Put plainly: solubility in G1/S (NP-40 vs SDS abundance) (log2 ratio); higher = more soluble. Particulars: cell cycle stage: G1/S.
For data set [2], the system named is HeLa Kyoto. Nature of the data set: solubility change mitosis vs G1/S (difference of NP-40 vs SDS log2 ratios) (log2 ratio difference); higher = more soluble in mitosis.
Data set [3] relates to HeLa Kyoto. Nature of the data set: thermal stability score vs G1/S (z-score of summed log2 fold changes over temperatures); higher = more thermally stable than in G1/S.
In data set [4] the test system is HeLa Kyoto. Put plainly: melting temperature (median over replicates), in situ; higher = more thermally stable.
Where [5] appears, read: cell cycle stage: early G1 (4.5 h after nocodazole release).
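Throughout, for melting temperature (median over replicates), in situ: HeLa Kyoto cells synchronized by double thymidine or nocodazole block, proteins quantified by TMT10plex mass spectrometry, three independent biological replicates.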
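Throughout, for solubility change mitosis vs G1/S (difference of NP-40 vs SDS log2 ratios): synchronized HeLa Kyoto cells (double thymidine block for G1/S, nocodazole release for mitosis), protein amounts in NP-40 versus SDS lysates quantified by mass spectrometry, three biological replicates.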
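Throughout, for solubility in G1/S (NP-40 vs SDS abundance): HeLa Kyoto cells arrested at G1/S by double thymidine block, proteins quantified by TMT10plex mass spectrometry in mild NP-40 versus SDS extracts, three biological replicates.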
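Throughout, for thermal stability score vs G1/S (z-score of summed log2 fold changes over temperatures): synchronized HeLa Kyoto cells, proteins quantified by TMT10plex mass spectrometry, three biological replicates, mitosis taken 0.5 h after nocodazole release, G1/S directly after double thymidine block.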

HACL1, sequence (chain, as listed by the source): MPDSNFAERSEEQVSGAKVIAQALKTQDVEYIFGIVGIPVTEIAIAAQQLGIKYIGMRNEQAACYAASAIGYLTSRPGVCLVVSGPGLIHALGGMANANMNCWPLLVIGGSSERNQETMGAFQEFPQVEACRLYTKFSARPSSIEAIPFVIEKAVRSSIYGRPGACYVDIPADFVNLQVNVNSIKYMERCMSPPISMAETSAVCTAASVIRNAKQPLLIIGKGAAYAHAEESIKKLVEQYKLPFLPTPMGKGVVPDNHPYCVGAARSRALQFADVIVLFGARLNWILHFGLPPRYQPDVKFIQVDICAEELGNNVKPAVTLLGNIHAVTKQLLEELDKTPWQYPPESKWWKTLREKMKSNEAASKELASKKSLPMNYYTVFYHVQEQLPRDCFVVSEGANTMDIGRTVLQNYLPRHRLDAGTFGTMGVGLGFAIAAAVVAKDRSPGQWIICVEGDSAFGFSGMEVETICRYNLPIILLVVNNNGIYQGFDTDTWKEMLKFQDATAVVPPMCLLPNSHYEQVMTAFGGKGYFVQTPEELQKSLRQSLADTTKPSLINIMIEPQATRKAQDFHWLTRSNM

As to “MAALEEEFTLSSVVLSAGPEGLLGVEQSDKTDQFLVTDSGRTVILYKVSDQKPLGSWSVKQGQIITCPAVCNFQTGEYVVVHDNKVLRIWNNEDVNLDKVFKATLSAEVYRILSVQGTEPLVLFKEGAVRGLEALLADPQQKIETVISDEEVIKWTKFFVVFRHPVLIFITEKHGNYFAYVQMFNSRILTKYTLLLGQDENSVIKSFTASVDRKFISLMSLSSDGCIYETLIPIRPADPEKNQSLVKSLLLKAVVSGNARNGVALTALDQDHVAVLGSPLAASKECLSVWNIKFQTLQTSKELPQGTSGQLWYYGEHLFMLHGKSLTVIPYKCEVSSLAGALGKLKHSQDPGTHVVSHFVNWETPQGCGLGFQNSEQSRRILRRRKIEVSLQPEVPPSKQLLSTIMKDSEKHIEVEVRKFLALKQTPDFHTVIGDTVTGLLERCKAEPSFYPRNCLMQLIQTHVLSYSLCPDLMEIALKKKDVQLLQLCLQQFPDIPESVTCACLKIFLSIGDDSLQETDVNMESVFDYSINSVHDEKMEEQTEILQNGFNPEEDKCNNCDQELNKKPQDETKESTSCPVVQKRAALLNAILHSAYSETFLLPHLKDIPAQHITLFLKYLYFLYLKCSENATMTLPGIHPPTLNQIMDWICLLLDANFTVVVMMPEAKRLLINLYKLVKSQISVYSELNKIEVSFRELQKLNQEKNNRGLYSIEVLELF [NOL11]”, the “solubility in G1/S (log2)” value in the data set on HeLa Kyoto [1] was -0.963. Also, in the data set with HeLa Kyoto [2], the “solubility change mitosis (log2)” value came to 0.471. For the same substance, the thermal stability score is -2.5 with HeLa Kyoto [3] (setting [5]) and -6.66 in the data set on HeLa Kyoto [3] (cell cycle stage: mitosis). The melting temperature is 55.1 °C with HeLa Kyoto [4] (cell cycle stage: G1/S) and 52.9 °C in the data set on HeLa Kyoto [4] (cell cycle stage: mitosis).
In the case of “MAEQATKSVLFVCLGNICRSPIAEAVFRKLVTDQNISENWRVDSAATSGYEIGNPPDYRGQSCMKRHGIPMSHVARQITKEDFATFDYILCMDESNLRDLNRKSNQVKTCKAKIELLGSYDPQKQLIIEDPYYGNDSDFETVYQQCVRCCRAFLEKAH [ACP1]”, the “solubility in G1/S (log2)” value in the data set on HeLa Kyoto [1] came out at 0.178. Besides, in the data set on HeLa Kyoto [2], the “solubility change mitosis (log2)” value was -0.0468. For the same substance, the values for the thermal stability score with HeLa Kyoto [3] (setting [5]) and in the data set with HeLa Kyoto [3] (cell cycle stage: mitosis) were -0.241 and -0.21, respectively. Moreover, the melting temperature in the data set with HeLa Kyoto [4] (cell cycle stage: G1/S) was 50.2 °C; in the data set with HeLa Kyoto [4] (cell cycle stage: mitosis), 51 °C.
For SUCLG1, the “solubility in G1/S (log2)” value in the data set with HeLa Kyoto [1] was 0.168. For the same substance, in the data set with HeLa Kyoto [2], the “solubility change mitosis (log2)” value is -0.0912. Also, the thermal stability score was -0.306 in the data set on HeLa Kyoto [3] (setting [5]) and -0.375 with HeLa Kyoto [3] (cell cycle stage: mitosis). Also, the melting temperature in the data set with HeLa Kyoto [4] (cell cycle stage: G1/S) is 50.8 °C; in the data set on HeLa Kyoto [4] (cell cycle stage: mitosis) it was 50.9 °C.
As to “MDPRKVNELRAFVKMCKQDPSVLHTEEMRFLREWVESMGGKVPPATQKAKSEENTKEEKPDSKKVEEDLKADEPSSEESDLEIDKEGVIEPDTDAPQEMGDENAEITEEMMDQANDKKVAAIEALNDGELQKAIDLFTDAIKLNPRLAILYAKRASVFVKLQKPNAAIRDCDRAIEINPDSAQPYKWRGKAHRLLGHWEEAAHDLALACKLDYDEDASAMLKEVQPRAQKIAEHRRKYERKREEREIKERIERVKKAREEHERAQREEEARRQSGAQYGSFPGGFPGGMPGNFPGGMPGMGGGMPGMAGMPGLNEILSDPEVLAAMQDPEVMVAFQDVAQNPANMSKYQSNPKVMNLISKLSAKFGGQA [ST13]”, the “solubility in G1/S (log2)” value with HeLa Kyoto [1] stood at 0.813. Also, in the data set with HeLa Kyoto [2], the “solubility change mitosis (log2)” value worked out at 0.103. The thermal stability score in the data set on HeLa Kyoto [3] (setting [5]) was 2.23; in the data set with HeLa Kyoto [3] (cell cycle stage: mitosis), 1.79. Further, the melting temperature in the data set with HeLa Kyoto [4] (cell cycle stage: G1/S) stood at 51.8 °C; in the data set on HeLa Kyoto [4] (cell cycle stage: mitosis) it was 51.3 °C.
With “MRLSWFRVLTVLSICLSAVATATGAEGKRKLQIGVKKRVDHCPIKSRKGDVLHMHYTGKLEDGTEFDSSLPQNQPFVFSLGTGQVIKGWDQGLLGMCEGEKRKLVIPSELGYGERGAPPKIPGGATLVFEVELLKIERRTEL [FKBP2]”, the “solubility in G1/S (log2)” value in the data set on HeLa Kyoto [1] was 0.262. Further, the “solubility change mitosis (log2)” value with HeLa Kyoto [2] is -0.0211. The thermal stability score is 1.33 in the data set with HeLa Kyoto [3] (setting [5]) and 1.16 in the data set on HeLa Kyoto [3] (cell cycle stage: mitosis). In addition, the melting temperature in the data set on HeLa Kyoto [4] (cell cycle stage: G1/S) was 53.1 °C; in the data set on HeLa Kyoto [4] (cell cycle stage: mitosis) it was 54.8 °C.
Turning to HACL1, the “solubility in G1/S (log2)” value with HeLa Kyoto [1] is -0.0836. Also, the “solubility change mitosis (log2)” value with HeLa Kyoto [2] was -0.168. The thermal stability score with HeLa Kyoto [3] (setting [5]) was -1.09; in the data set with HeLa Kyoto [3] (cell cycle stage: mitosis), -0.922. Also, the figures for the melting temperature with HeLa Kyoto [4] (cell cycle stage: G1/S) and in the data set on HeLa Kyoto [4] (cell cycle stage: mitosis) were 56.6 °C and 56.1 °C, respectively.

The values are drawn from the supplement of paper PMC5998384.
